Literature values in paper PMC4188523.

How the values were obtained:
Asp52 = Asp52 (UniProt position 70, TDGSTDYGILQ); assay: NMR (according to the title of cited reference 36; not described in this article)
Glu35 = Glu35 (UniProt position 53, CAAKFESNFNT); assay: as above

Hen egg white lysozyme (HEWL, lysozyme C) (Gallus gallus)
pKa (Asp52): ∼3.6
pKa (Glu35): ∼6.2
